In data set [1] the test system is OC[C@@H](O)[C@@H](O[C@@H]1O[C@H](CO[C@H]2OC[C@@H](O)[C@H](O)[C@H]2O)[C@@H](O[C@@H]2O[C@H](CO[C@H]3OC[C@@H](O)[C@H](O)[C@H]3O)[C@@H](O[C@@H]3O[C@H](CO[C@H]4OC[C@@H](O)[C@H](O)[C@H]4O)[C@@H](O)[C@H](O)[C@H]3O)[C@H](O)[C@H]2O)[C@H](O)[C@H]1O)[C@H](O)[C@@H](O)CO. Nature of the data set: bicinchoninate reducing-sugar assay, Michaelis-Menten nonlinear regression. Type of data set: biochemical, Aspergillus oryzae. The settings on record: 50 mM sodium phosphate pH 4.5, 60 °C, 5 min, 0.0625-4 mM substrate. The source says:
bicinchoninate reducing-sugar assay, Michaelis-Menten nonlinear regression on IpeA

Substrate in data set [2]: OC[C@@H](O)[C@@H](O[C@@H]1O[C@H](CO[C@H]2OC[C@@H](O)[C@H](O)[C@H]2O)[C@@H](O[C@@H]2O[C@H](CO[C@H]3OC[C@@H](O)[C@H](O)[C@H]3O)[C@@H](O[C@@H]3O[C@H](CO[C@H]4OC[C@@H](O)[C@H](O)[C@H]4O)[C@@H](O)[C@H](O)[C@H]3O)[C@H](O)[C@H]2O)[C@H](O)[C@H]1O)[C@H](O)[C@@H](O)CO
The description is as above. It counts as biochemical, Phaeoacremonium minimum. The conditions noted are these: 50 mM sodium phosphate pH 4.5, 60 °C, 5 min, 0.0125-0.8 mM substrate. The source says:
bicinchoninate reducing-sugar assay, Michaelis-Menten nonlinear regression on PmIPase

As a reminder, the Km is the concentration of substrate that gives half-maximal velocity. In general, kcat refers to the number of substrate molecules converted per active site and unit of time at saturation. For orientation: kcat/Km means the second-order rate constant that governs catalysis at low substrate concentration. IpeA (Aspergillus oryzae RIB40): in data set [1], the Michaelis-Menten constant (Km) came to 0.629 ± 0.051 mM, the kcat came to 586 ± 16 s⁻¹ and the catalytic efficiency (kcat/Km) is 931000 M⁻¹ s⁻¹.

B1: PmIPase (Phaeoacremonium minimum UCRPA7) (protein)
chain: VPVYKNPNATVDDRIADLLKRMTIEDKTAQLIQGDISNWINTTDGTFNATGLEWNMKYRASMFYVGYPTNWSTISNGVKIAQDYLVHNTTLGIPALVQSEGIHGFLIPNATIFNSPIAQACSWNPELVEKMGKAIAQESLALGVNNLFAPLGDLARELRFGRVEETYGEDGYLSGEMAYSYVKGLQSGNVAAMVKHFAAFATPEQGVNTAPVHGGERELLTTYLPSYKRAIIDAGAYTIMSAYHCYDGVPAVADYHVLTEILRDSWGFKYFVMSDAGGTDRLCNSFGMCEASPIDSEAVTSMVLPSGNDVEMGGGSYNFQKIPEMVAAGKLDEKLVDQAVSRVLRVKFEMGLFEKPYQGVAEDEASKYINTKETIELARQLDTESIVLLENHEDLLPLKKSAKIAVIGPMAHGYMNYGDYVPYRSQYRGVTPLDGIRAAVDDESSVSYAQGCERWSNDESGFPEAIAAAEGADVAVVVVGTWSRDQGELWQNLNATTGEHIDVASLNLVGAMPRLVSAIINTGKPTVVVFSSGKPVTEPWISTNASALVQQFYPSEQGGNALADVLFGDYNPSGRLSVSFPYDVGTTPIYYDYLNSARAWPNPGHAYPNGTLVFGSNYVLNTPLPLYDFGYGKSYSTFSYSEITLSKSTASSSDTVTVSVDVTNNSTRDGTEVVQLYVKDLVSSVVVPNKQLKGFAKIPIAAGATETVKLDLKVADLGLWDIKYNYVVEPGNFTIFIGSSSADFRANTTLTVV
notes: synthetic codon-optimized gene, secreted from Pichia pastoris X-33 (pGAPZalpha A), Myc and His6 tags kept; full length 777 aa (2334 bp), predicted 24-aa N-terminal signal peptide absent from calculated mass 85 kDa; N-glycosylated, ~101 kDa on SDS/PAGE; putative nucleophile Asp-299, acid/base Glu-523
For B1, in data set [2], the Michaelis constant (Km) was determined as 0.0475 ± 0.0048 mM, the kcat was determined as 101 ± 3 s⁻¹ and the kcat/Km is 2.13e+06 M⁻¹ s⁻¹.

(Values after article PMC6325624, “A novel isoprimeverose‐producing enzyme from Phaeoacremonium minimum is active with low concentrations of xyloglucan oligosaccharides” (FEBS Open Bio, 2018).)
